Experimental data published in publication doi:10.1101/2023.06.19.545293.

Molecular target: ZnF domain of A. thaliana SPL5 (Ser60-Leu127) (A. thaliana) (UniProt Q9S758)
Test: ITC

Sequence of ZnF domain of A. thaliana SPL5 (Ser60-Leu127) (A. thaliana) (Q9S758 60-127): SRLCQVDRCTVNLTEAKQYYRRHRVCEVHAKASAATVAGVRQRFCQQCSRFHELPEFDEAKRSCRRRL

With “SAP05 (mature, Ala33-Lys135) of Aster Yellows phytoplasma strain Witches Broom (natural protein)” the Kd was 450 nM and the stoichiometry N was 1.
